The values that follow come from patent publication US20240166750A1.

Test [1] has as its target biotinylated recombinant human FcRn (human) (UniProt P55899). Put plainly: FcRn affinity chromatography, pH gradient 5.5-9.5.
Test [2] has the same target. Put plainly: SPR Biacore T200, pH 7.4; steady-state RU at 1000 nM antibody; SD 0.2 RU. (In SPR one partner is held on a chip, and binding of the other changes the refractive index at the surface.)
For test [3] the target is unchanged. As to the kind of experiment: SPR Biacore T200, pH 6.0; biotin-FcRn on CAP chip, antibody analyte; bivalent fit, apparent KD; SD 240 nM.
The target is the same in test [4]. As to the kind of experiment: SPR Biacore T200, pH 7.4; steady-state RU at 1000 nM antibody; SD 3.3 RU.
The target is the same in test [5]. As to the kind of experiment: SPR Biacore T200, pH 6.0; biotin-FcRn on CAP chip, antibody analyte; bivalent fit, apparent KD; SD 260 nM.
Test [6] has as its target Recombinant human FcγRIIIa-V158 (human) (UniProt P08637). As to the kind of experiment: SPR Biacore T200; antibody on Protein A, FcγRIIIa-V158 analyte; 1:1 fit.
For test [7] the target is unchanged. Put plainly: SPR Carterra LSA; Fc on protein AG, hFcγRIIIa-V158 analyte; 1:1 kinetic fit.
Test [8] has the same target. Put plainly: SPR Biacore T200; antibody on Protein A, FcγRIIIa-V158 analyte; 1:1 fit. This is another data set of the same source.
Test [9] shares this target. As to the kind of experiment: SPR Biacore T200.
The target is the same in test [10]. As to the kind of experiment: SPR Biacore T200; antibody on protein A, FcγRIIIa-V158 analyte; 1:1 kinetic fit.
Test [11] concerns the target FcγRIIIa (V158) expressed on engineered Jurkat effector cells (UniProt P08637). As to the kind of experiment: cell-based or functional assay.
The target in test [12] is biotinylated recombinant human FcRn (human) (UniProt P55899). As to the kind of experiment: SPR Biacore T200, pH 7.4; steady-state RU at 1000 nM antibody; SD 2.1 RU.
Chain of biotinylated recombinant human FcRn (human) (P55899 24-297 limits assumed, chain 1 of 2): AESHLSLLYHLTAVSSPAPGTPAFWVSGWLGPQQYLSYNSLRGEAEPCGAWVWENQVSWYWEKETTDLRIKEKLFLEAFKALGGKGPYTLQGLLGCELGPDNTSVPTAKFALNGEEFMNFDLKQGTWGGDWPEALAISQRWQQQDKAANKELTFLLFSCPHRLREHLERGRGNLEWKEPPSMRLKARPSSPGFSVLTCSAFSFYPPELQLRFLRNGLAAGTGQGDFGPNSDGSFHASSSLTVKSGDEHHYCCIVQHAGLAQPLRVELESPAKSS
Chain of biotinylated recombinant human FcRn (human) (P61769 21-119 limits assumed, chain 2 of 2, further chain): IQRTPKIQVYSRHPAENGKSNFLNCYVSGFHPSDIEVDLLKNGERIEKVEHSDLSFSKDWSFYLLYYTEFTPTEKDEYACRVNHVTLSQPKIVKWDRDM
Test [13] has as its target Recombinant human HPC4-tagged FcγRIIIa-V158 (human) (UniProt P08637). Put plainly: SPR Biacore T200; receptor captured by anti-HPC4, antibody analyte; steady-state RU.
In test [14] the target is biotinylated recombinant human FcRn (human) (UniProt P55899). Put plainly: SPR Biacore T200, pH 6.0; biotin-FcRn on CAP chip, antibody analyte; bivalent fit, apparent KD; SD 700 nM.
The target is the same in test [15]. As to the kind of experiment: SPR Biacore T200, pH 7.4; steady-state RU at 1000 nM antibody; SD 5.4 RU.
The target is the same in test [16]. As to the kind of experiment: SPR Biacore T200, pH 6.0; biotin-FcRn on CAP chip, antibody analyte; bivalent fit, apparent KD; SD 10 nM.
The target is the same in test [17]. Put plainly: SPR Biacore T200, pH 7.4; steady-state RU at 1000 nM antibody; SD 5.6 RU.
The target is the same in test [18]. Put plainly: SPR Biacore T200, pH 6.0; biotin-FcRn on CAP chip, antibody analyte; bivalent fit, apparent KD; SD 47 nM.

Turning to “WT antibody specific for protein 3, without kifunensine”, the pH of elution in test [1] turned out to be 7.07 pH. The RU (steady state, pH 7.4) in test [2] worked out at 0.8 RU. In addition, in test [3], the Kd is 2000 nM.
For the substance “YTE antibody specific for protein 3, without kifunensine”, in test [1], the pH of elution came to 7.74 pH. In addition, in test [4], the RU (steady state, pH 7.4) came to 10.7 RU. For the same substance, the Kd in [5] was found to be 1270 nM.
On to “DE (S239D/I332E) antibody specific for protein 1 (human IgG1)”, for which, in test [6], the Kd worked out at 14 nM and the koff (usually the rate constant with which the complex falls apart) came out at 0.006 s⁻¹.
Regarding “Fc fragment S298C, no kifunensine (from UniProt P01857 104-330)”, the Kd in [7] is 86 nM.
“WT antibody specific for protein 1 (human monoclonal IgG1, mAb A)”: in test [6], the Kd stood at 540 nM, the koff turned out to be 0.031 s⁻¹ and the on-rate (kon) (usually the second-order rate constant of association) is 60000 M⁻¹ s⁻¹. For the same substance, in [8], the Kd worked out at 557 nM, the koff was found to be 0.107 s⁻¹ and the kon came out at 190000 M⁻¹ s⁻¹.
Take “Fc fragment S298C, with kifunensine (from UniProt P01857 104-330)”: the Kd in [7] stood at 24 nM.
As to “WT antibody specific for protein 1 containing oligomannose (human IgG1)”, in test [6], the Kd turned out to be 256 nM, the off-rate (koff) was found to be 0.017 s⁻¹ and the kon is 70000 M⁻¹ s⁻¹.
In the case of “hypergalactosylated DE (S239D/I332E) antibody specific for protein 1 (human IgG1)”, the fold higher affinity than the unmodified DE antibody in [9] came to 1.8 fold. In test [6], the Kd came out at 8 nM, the off-rate constant (koff) was 0.004 s⁻¹ and the on-rate (kon) stood at 480000 M⁻¹ s⁻¹.
For the substance “Fc fragment S298A, with kifunensine (from UniProt P01857 104-330)”, the Kd in test [7] turned out to be 21 nM.
In the case of “DE (R292C/V302C) antibody specific for protein 5 (TPP-35708)”, in [10], the Fold KD WT came out at 31 fold, the Kd is 3.79 nM, the koff was determined as 0.00832 s⁻¹ and the kon came to 2.2e+06 M⁻¹ s⁻¹.
Regarding “DE (S239D/I332E) antibody specific for protein 1 containing oligomannose (human IgG1)”, the fold higher affinity than the unmodified DE antibody in test [9] is 2.3 fold. In [11], this substance gave an ADCC activity (ADCC reporter gene assay), fold vs DE antibody without modification of 1.4 fold. Moreover, in [6], the Kd came out at 6 nM, the off-rate constant (koff) stood at 0.002 s⁻¹ and the kon came out at 400000 M⁻¹ s⁻¹.
On to “YTE antibody specific for protein 3, with kifunensine”, for which, in test [1], the pH of elution came out at 7.68 pH. Moreover, in test [12], the RU (steady state, pH 7.4) is 9 RU. Also, in [13], the Fold Change (Kifunensine Treated vs Untreated) in FcγRIIIa Binding Affinity is 2.88 fold and the Fold Change versus WT in FcγRIIIa Binding Affinity with Kifunensine Treatment worked out at 1.26 fold. Besides, the Kd in test [3] came out at 1210 nM.
With “WT antibody specific for protein 3, with kifunensine”, the pH of elution in test [1] stood at 7.01 pH. Also, in test [2], the RU (steady state, pH 7.4) is 0.5 RU. Besides, in [13], the Fold Change (Kifunensine Treated vs Untreated) in FcγRIIIa Binding Affinity was determined as 1.76 fold and the Fold Change versus WT in FcγRIIIa Binding Affinity with Kifunensine Treatment was 1.76 fold. In addition, the Kd in [14] worked out at 3040 nM.
On to “LS antibody specific for protein 3, with kifunensine”, for which the pH of elution in [1] came out at 7.81 pH. Besides, the RU (steady state, pH 7.4) in [15] came out at 16.6 RU. Besides, in test [13], the Fold Change (Kifunensine Treated vs Untreated) in FcγRIIIa Binding Affinity was found to be 1.75 fold and the Fold Change versus WT in FcγRIIIa Binding Affinity with Kifunensine Treatment stood at 1.85 fold. Further, in [16], the Kd is 658 nM.
As for “WT antibody specific for protein 5 (TPP-23424)”, in [10], the Kd amounted to 118 nM.
For “Fc fragment S298A, no kifunensine (from UniProt P01857 104-330)”, in [7], the Kd worked out at 230 nM.
“LS antibody specific for protein 3, without kifunensine”: the pH of elution in test [1] amounted to 7.84 pH. The RU (steady state, pH 7.4) in test [17] is 19.4 RU. In addition, in test [18], the Kd came to 534 nM.
Turning to “afucosylated DE (S239D/I332E) antibody specific for protein 1 (human IgG1)”, the fold increase in receptor binding compared to DE antibody in test [9] worked out at 3.5 fold. In [11], this substance gave an ADCC activity (ADCC reporter gene assay), fold vs DE antibody without modification of 3.2 fold. In addition, in test [8], the Kd was 4 nM, the koff was 0.003 s⁻¹ and the kon was found to be 750000 M⁻¹ s⁻¹.
Regarding “afucosylated antibody specific for protein 5 (Creative Biolabs)”, in [10], the Fold KD WT was found to be 8 fold, the Kd amounted to 14.9 nM, the koff was 0.00925 s⁻¹ and the kon is 622000 M⁻¹ s⁻¹.
